T1: ADAMTS-5 (Homo sapiens, UniProt Q9UNA0)
T1 sequence (Q9UNA0 262-930): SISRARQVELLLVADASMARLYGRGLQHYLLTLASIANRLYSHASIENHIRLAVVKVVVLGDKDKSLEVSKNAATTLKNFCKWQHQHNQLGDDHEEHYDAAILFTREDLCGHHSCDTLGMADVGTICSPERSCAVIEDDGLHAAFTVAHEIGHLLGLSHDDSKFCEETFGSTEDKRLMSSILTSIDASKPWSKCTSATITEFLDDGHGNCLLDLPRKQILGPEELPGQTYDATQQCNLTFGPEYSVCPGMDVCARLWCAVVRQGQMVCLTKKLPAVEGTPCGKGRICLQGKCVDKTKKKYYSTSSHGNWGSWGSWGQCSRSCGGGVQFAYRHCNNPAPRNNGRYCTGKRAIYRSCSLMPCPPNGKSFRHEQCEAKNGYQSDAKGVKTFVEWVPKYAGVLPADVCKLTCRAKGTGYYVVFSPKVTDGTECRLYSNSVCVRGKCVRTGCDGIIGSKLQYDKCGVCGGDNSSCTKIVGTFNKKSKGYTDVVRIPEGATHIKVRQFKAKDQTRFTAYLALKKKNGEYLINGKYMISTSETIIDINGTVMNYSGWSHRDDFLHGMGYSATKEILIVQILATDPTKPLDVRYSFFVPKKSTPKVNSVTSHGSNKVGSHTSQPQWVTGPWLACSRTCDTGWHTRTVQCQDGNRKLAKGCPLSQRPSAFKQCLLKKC


Target: T1, ADAMTS-5
Assay: Aggrecanase assay with GST-IGD-FLAG substrate, ADAMTS-5
Type: biochemical
Settings: for Ki: Table 3, GST-IGD-FLAG substrate, pH 7.5, 37° C., read-out: Ki(app) ADAMTS-5
Protocol: FIG. 8. Graphs of Ki(app) determination. The GST-IGD-FLAG substrate assay was used to determine the Ki(app) of the N-terminal reactive site mutants against ADAMTS-4 (filled squares) and ADAMTS-5 (open circles).
The substrate containing glutathione S-transferase (GST) fused with the interglobular domain (IGD) of aggrecan (Tyr^331 to Gly^457) attached with a C-terminal FLAG sequence (GST-IGD-FLAG) was prepared by cloning it into pGEX-4T1 at the EcoR1 and Xho1 cloning sites. This substrate was expressed in E. coli strain BL-21 (non-DE3) transfected with the pGEX4T1 GST-IGD-FLAG plasmid by induction with […] isopropyl-beta-D-thiogalactopyranoside (IPTG). After induction, bacteria were collected by centrifugation and resuspended in 20 ml of 50 mM Tris-HCl (pH 8.0), 150 mM NaCl, 0.02% NaN3, […] DTT, […] EDTA with proteinase inhibitor cocktail set II inhibitors (Merck, Nottingham, UK). The resuspended bacteria were then disrupted mechanically using a French Press (5×1500 Psi). After centrifugation at 24,000 g (30 min, 4° C.), the supernatant, containing the expressed GST-IGD-FLAG, was applied to a glutathione-Sepharose 4B column (Qiagen, Crawley, UK). The column was washed with 0.5 M NaCl, 50 mM Tris-HCl (pH 8.0) and eluted with 10 mM reduced glutathione, 50 mM Tris-HCl (pH 8.0). The eluted material was dialysed three times against 10 volumes of 50 mM Tris-HCl (pH 8.0), 150 mM NaCl. […] The concentration of intact substrate (52 kDa) was determined by comparison with Coomassie Brilliant Blue staining of known amounts of bovine serum albumin (GE Healthsciences, Buckinghampshire, UK). […]
Aggrecanase assays were carried out in 50 mM Tris HCl pH 7.5, 150 mM NaCl, 10 mM CaCl2, 0.02% NaN3, 0.05% Brij-35 at 37° C. […] The stained gels were then scanned using a scanning densitometer (Biorad GS-710, Hemel Hempstead, UK) and the band intensity of the product (17 kDa) quantified using the 1D Phoretix quantification software (Nonlinear Dynamics, Newcastle upon Tyne, UK). Background subtraction was done using the rolling ball method, and band intensity expressed as pixel volumes.

Potency for ADAMTS-5 relative to ADAMTS-4 (ADAMTS-5 versus ADAMTS-4) | Ki [nM] | Molecule
about 45 times |  | (-2A)N-TIMP-3: N-TIMP-3 mutant with two alanine residues on the N-terminal side of Cysteine1 of the TIMP-3 sequence (protein) AACTCSPSHPQDAFCNSDIVIRAKVVGKKLVKEGPFGTLVYTIKQMKMYRGFTKMPHVQYIHTEASESLCGLKLEVNKYQYLLTGRVYDGKMYTGLCNFVERWDQLTLSQRKGLNYRYHLGCN
 | 1.9 ± 0.6 | -1A: N-TIMP-3 mutant with the addition of an N-terminal alanine extension (-1A) (protein) ACTCSPSHPQDAFCNSDIVIRAKVVGKKLVKEGPFGTLVYTIKQMKMYRGFTKMPHVQYIHTEASESLCGLKLEVNKYQYLLTGRVYDGKMYTGLCNFVERWDQLTLSQRKGLNYRYHLGCN
 | 0.4 ± 0.2 | N-TIMP-3: N-terminal inhibitory domain of TIMP-3 (residues 1 to 121), C-terminally His-tagged, wild-type (protein) CTCSPSHPQDAFCNSDIVIRAKVVGKKLVKEGPFGTLVYTIKQMKMYRGFTKMPHVQYIHTEASESLCGLKLEVNKYQYLLTGRVYDGKMYTGLCNFVERWDQLTLSQRKGLNYRYHLGCN
